For this series, the target named is RAD51 (UniProt Q06609 1-339). As to the kind of experiment: EMSA; 1 mM Mg2+, 1 mM ATP; highest affinity, unbound band gone at lowest RAD51 (1.5 uM); RAD51 EMSA: 50 mM Tris-HCl pH 7.5, 50 mM KCl, 1 mM MgCl2, 1 mM ATP, 37 C 10 min; 0.8% TBE agarose + 10 mM KCl at 4 C. Single molecule: T50 (10 mM Tris-HCl pH 7.5, 50 mM NaCl); imaging 10 mM Tris-HCl pH 7.5, 100 mM NaCl, 10% glycerol. Supplementary Table 2 kd values are for TERRA/DNA annealing to (protein-bound) duplex, not …. As to conditions: protein: recombinant; label: Cy3; G4, single strand. (In general: In EMSA bound probe runs differently from free probe, usually more slowly.)
RAD51, sequence (Q06609 whole entry): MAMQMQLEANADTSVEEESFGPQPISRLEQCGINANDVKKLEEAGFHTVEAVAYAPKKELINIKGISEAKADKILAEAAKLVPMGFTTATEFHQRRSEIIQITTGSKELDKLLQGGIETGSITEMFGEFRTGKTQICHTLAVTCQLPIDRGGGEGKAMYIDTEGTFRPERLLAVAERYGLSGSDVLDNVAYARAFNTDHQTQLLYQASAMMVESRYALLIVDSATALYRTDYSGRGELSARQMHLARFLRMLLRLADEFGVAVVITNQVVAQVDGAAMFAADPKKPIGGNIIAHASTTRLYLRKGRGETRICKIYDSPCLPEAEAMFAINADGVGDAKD

B1: TERRA-18 (structured_RNA)
RNA: UGGCGACGGCAGCGAGGCUUAGGGUUAGGGUUAGGGUUAGGG
With B1, the binding result is “binds”.

(Values after article PMC11417404, “The molecular mechanism for TERRA recruitment and annealing to telomeres”.)
